Measurements: patent publication US12195506B2, “Immunotherapy with A*01 restricted peptides and combination of peptides against cancers and related methods” (Immatics Biotechnologies GmbH, priority 2018, dated 2025)

target: HLA-A*01:01 (Homo sapiens, UniProt P04439, A114D/A174V/A182V/D101N/D185E/E176A/E190D/L180R/Q94H/R68K/S129P/T187R/V100A/V91M/W191G); test: MHC binding assay: UV-ligand exchange, ELISA of stabilized MHC complexes (peptide exchange yield); details: binding to HLA-A*01:01, UV-ligand exchange
How it was run: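 Peptide–MHC complexes were formed by UV-induced exchange of a photocleavable ligand for the test peptide. Exchange yield was measured by streptavidin-capture ELISA of 100-fold diluted complexes, detected with HRP anti-β2m at A450. Refolded HLA-A*02:01/MLA-001 monomers at 15-500 ng/ml served as standards.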

Substance	Peptide exchange
323 (KTLQKPVLPLY; listed as Homo sapiens) [compound 323]	++ (>20% = ++)
325 (LQKPVLPLY; listed as Homo sapiens) [compound 325]	++ (>20% = ++)
326 (STSRLTLFS; listed as Homo sapiens) [compound 326]	++ (>20% = ++)
329 (NTDSMTLNNTAY; listed as Homo sapiens) [compound 329]	++++ (>75% = ++++)
330 (EGELSEGEHWY; listed as Homo sapiens) [compound 330]	+++ (>50 = +++)
331 (YLYQAPGSLALY; listed as Homo sapiens) [compound 331]	++++ (>75% = ++++)
333 (LSDPQAELQFY; listed as Homo sapiens) [compound 333]	++++ (>75% = ++++)
334 (PSSMPECLSY; listed as Homo sapiens) [compound 334]	++++ (>75% = ++++)
337 (FTESNQYNIY; listed as Homo sapiens) [compound 337]	++++ (>75% = ++++)
338 (YSPDSFNVSW; listed as Homo sapiens) [compound 338]	++ (>20% = ++)
340 (SVDSNLVAY; listed as Homo sapiens) [compound 340]	+++ (>50 = +++)
342 (QTYMDGLLHY; listed as Homo sapiens) [compound 342]	++++ (>75% = ++++)
343 (YFGNYFTYY; listed as Homo sapiens) [compound 343]	+ (>10% =+)
344 (AVNALQSVY; listed as Homo sapiens) [compound 344]	++ (>20% = ++)
348 (DSTDGCLLSF; listed as Homo sapiens) [compound 348]	++ (>20% = ++)
350 (LTDPQVSYV; listed as Homo sapiens) [compound 350]	+++ (>50 = +++)
352 (YPVVVAESMY; listed as Homo sapiens) [compound 352]	++ (>20% = ++)
354 (EIIRYIFAY; listed as Homo sapiens) [compound 354]	++ (>20% = ++)
355 (MADRGEARL; listed as Homo sapiens) [compound 355]	++ (>20% = ++)
356 (NSENHILKY; listed as Homo sapiens) [compound 356]	++++ (>75% = ++++)
357 (MSPDIALLYL; listed as Homo sapiens) [compound 357]	+++ (>50 = +++)

Substance	Peptide exchange
360 (RFDDINQEF; listed as Homo sapiens) [compound 360]	+ (>10% =+)
362 (SGALDEAAAY; listed as Homo sapiens) [compound 362]	++ (>20% = ++)
363 (LTDRDVSFY; listed as Homo sapiens) [compound 363]	++++ (>75% = ++++)
366 (ITVDVRDEF; listed as Homo sapiens) [compound 366]	+ (>10% =+)
367 (LTDTGYLQLY; listed as Homo sapiens) [compound 367]	++++ (>75% = ++++)
368 (ESAATGQLDY; listed as Homo sapiens) [compound 368]	+++ (>50 = +++)
370 (RLSTIRHLY; listed as Homo sapiens) [compound 370]	+++ (>50 = +++)
371 (WSDSTSQTIY; listed as Homo sapiens) [compound 371]	++++ (>75% = ++++)
373 (FHADSDDESF; listed as Homo sapiens) [compound 373]	+ (>10% =+)
377 (YADPSANRDLL; listed as Homo sapiens) [compound 377]	++ (>20% = ++)
379 (SLIIDDTEY; listed as Homo sapiens) [compound 379]	++ (>20% = ++)
380 (VACGNNPVY; listed as Homo sapiens) [compound 380]	+++ (>50 = +++)
382 (YEPATMEQY; listed as Homo sapiens) [compound 382]	++ (>20% = ++)
385 (SANALILTY; listed as Homo sapiens) [compound 385]	++ (>20% = ++)
390 (FSEPFHLIVSY; listed as Homo sapiens) [compound 390]	++++ (>75% = ++++)
392 (TQHFVQENY; listed as Homo sapiens) [compound 392]	++ (>20% = ++)
393 (QVWGGQPVY; listed as Homo sapiens) [compound 393]	+ (>10% =+)
395 (ILKGGSGTY; listed as Homo sapiens) [compound 395]	++ (>20% = ++)
397 (NSAINPLIY; listed as Homo sapiens) [compound 397]	++++ (>75% = ++++)
398 (YYYDTHTNTY; listed as Homo sapiens) [compound 398]	+ (>10% =+)

Further lines, results first:

Peptide exchange	Substance
++ (>20% = ++)	324 (RTGIFPYRF; listed as Homo sapiens) [compound 324]
+++ (>50 = +++)	327 (IMLSVDQHLY; listed as Homo sapiens) [compound 327]
++ (>20% = ++)	328 (LLDEDNNIKL; listed as Homo sapiens) [compound 328]
+++ (>50 = +++)	335 (PSSMPECLSYY; listed as Homo sapiens) [compound 335]
+++ (>50 = +++)	336 (ATNIQLNIDTY; listed as Homo sapiens) [compound 336]
++ (>20% = ++)	339 (ESMDIFPLGW; listed as Homo sapiens) [compound 339]
+++ (>50 = +++)	341 (PANYLGKMTY; listed as Homo sapiens) [compound 341]
++++ (>75% = ++++)	345 (NTMDAVPRIDHY; listed as Homo sapiens) [compound 345]
++ (>20% = ++)	346 (VAGLEAGVLY; listed as Homo sapiens) [compound 346]
++ (>20% = ++)	347 (SADHPGLTF; listed as Homo sapiens) [compound 347]
+ (>10% =+)	349 (HLLSVSLYY; listed as Homo sapiens) [compound 349]
++++ (>75% = ++++)	351 (VLDPMLDFY; listed as Homo sapiens) [compound 351]
++ (>20% = ++)	353 (RLNGSVASY; listed as Homo sapiens) [compound 353]
++++ (>75% = ++++)	358 (YMSPDIALLY; listed as Homo sapiens) [compound 358]
+++ (>50 = +++)	359 (NKEINYFMY; listed as Homo sapiens) [compound 359]
+++ (>50 = +++)	361 (FTAEEGQLY; listed as Homo sapiens) [compound 361]

Peptide exchange	Substance
++++ (>75% = ++++)	364 (DTGYLQLYY; listed as Homo sapiens) [compound 364]
++ (>20% = ++)	365 (FVDTKVPEH; listed as Homo sapiens) [compound 365]
+++ (>50 = +++)	369 (AVMEAAFVY; listed as Homo sapiens) [compound 369]
++ (>20% = ++)	372 (SRSDFEWVY; listed as Homo sapiens) [compound 372]
++++ (>75% = ++++)	375 (ASSLDSLHY; listed as Homo sapiens) [compound 375]
+++ (>50 = +++)	376 (EDDEDEDLY; listed as Homo sapiens) [compound 376]
++ (>20% = ++)	378 (TAKAPSTEY; listed as Homo sapiens) [compound 378]
++++ (>75% = ++++)	381 (ETSFSTSHY; listed as Homo sapiens) [compound 381]
++ (>20% = ++)	383 (PPDHAVGRTKY; listed as Homo sapiens) [compound 383]
+ (>10% =+)	384 (RFRSITQSYY; listed as Homo sapiens) [compound 384]
++++ (>75% = ++++)	388 (YTAHVGYSMY; listed as Homo sapiens) [compound 388]
+ (>10% =+)	389 (YYDLVESTF; listed as Homo sapiens) [compound 389]
++ (>20% = ++)	391 (GSNPARYEF; listed as Homo sapiens) [compound 391]
++ (>20% = ++)	394 (QVPLDCVLY; listed as Homo sapiens) [compound 394]
++ (>20% = ++)	396 (LPDPNVQKY; listed as Homo sapiens) [compound 396]
